Experimental data from US11267868 (dated 2022).
Read-outs that look alike come from different tables or passages of the source.

T1: FcgRIIaR (human, UniProt P12318)
T1 chain: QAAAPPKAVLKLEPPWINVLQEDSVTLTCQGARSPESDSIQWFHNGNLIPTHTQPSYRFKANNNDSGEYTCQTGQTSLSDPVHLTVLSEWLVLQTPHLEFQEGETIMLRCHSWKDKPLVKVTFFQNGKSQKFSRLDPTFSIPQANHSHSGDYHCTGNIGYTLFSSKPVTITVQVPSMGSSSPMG

T2: FcgRIIaH (human, UniProt P12318)
T2 chain: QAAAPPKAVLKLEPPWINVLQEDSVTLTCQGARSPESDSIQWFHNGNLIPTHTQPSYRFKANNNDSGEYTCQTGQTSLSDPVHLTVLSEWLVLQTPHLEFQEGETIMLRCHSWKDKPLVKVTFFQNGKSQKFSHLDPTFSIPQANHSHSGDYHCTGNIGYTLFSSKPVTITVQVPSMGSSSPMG

T3: FcgRIa (human, UniProt P12314)
T3 chain: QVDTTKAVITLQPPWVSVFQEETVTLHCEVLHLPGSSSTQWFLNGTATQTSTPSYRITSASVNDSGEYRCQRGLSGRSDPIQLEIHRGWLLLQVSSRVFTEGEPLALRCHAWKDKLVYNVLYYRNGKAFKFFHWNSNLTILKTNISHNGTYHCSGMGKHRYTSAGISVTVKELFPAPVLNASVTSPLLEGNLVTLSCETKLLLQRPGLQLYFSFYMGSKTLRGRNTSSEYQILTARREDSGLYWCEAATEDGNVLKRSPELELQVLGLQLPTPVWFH

T4: FcgRIIb (human, UniProt P31994)
T4 chain: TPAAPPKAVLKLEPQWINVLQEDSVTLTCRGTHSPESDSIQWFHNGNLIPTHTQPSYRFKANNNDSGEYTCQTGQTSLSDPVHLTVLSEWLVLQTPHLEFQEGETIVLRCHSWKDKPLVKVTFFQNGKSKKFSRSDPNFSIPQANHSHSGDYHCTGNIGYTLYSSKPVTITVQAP


Legend:
Experiment in all cases: SPR
FcgRIIaR [1] = biological target: T1, FcgRIIaR
FcgRIIaH [2] = biological target: T2, FcgRIIaH
FcgRIIIaV [3] = biological target: T5, FcgRIIIaV (human, UniProt P08637)
FcgRIa [4] = biological target: T3, FcgRIa
FcgRIIb [5] = biological target: T4, FcgRIIb
FcgRIIIaV [6] = biological target: T5, FcgRIIIaV; remark: listed apart in the source
FcgRIIaH [7] = biological target: T2, FcgRIIaH
FcgRIIb [8] = biological target: T4, FcgRIIb
FcgRIa [9] = biological target: T3, FcgRIa
FcgRIIaR [10] = biological target: T1, FcgRIIaR

T5 sequence (P08637 17-208 F176V): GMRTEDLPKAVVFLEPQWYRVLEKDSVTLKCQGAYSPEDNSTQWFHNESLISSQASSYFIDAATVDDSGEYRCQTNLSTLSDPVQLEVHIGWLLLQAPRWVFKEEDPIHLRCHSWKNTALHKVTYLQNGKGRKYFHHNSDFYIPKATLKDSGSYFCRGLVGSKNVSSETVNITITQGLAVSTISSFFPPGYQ

Row | Binder | Kd (FcgRIIaR [1]) | Kd (FcgRIIaH [2]) | Kd (FcgRIIIaV [3]) | Kd (FcgRIa [4]) | Kd (FcgRIIb [5]) | Kd (FcgRIIIaV [6]) | Kd (FcgRIIaH [7]) | Kd (FcgRIIb [8]) | Kd (FcgRIa [9]) | Kd (FcgRIIaR [10])
1 | IL6R-P665/IL6R-L (antibody) chain 1: QVQLQESGPGLVKPSETLSLTCAVSGHSISHDHAWSWVRQPPGEGLEWIGFISYSGITNYNPSLQGRVTISRDNSKNTLYLQMNSLRAEDTAVYYCARSLARTTAMDYWGEGTLVTVSSASTKGPSVFPLAPSSKSTSGGTAALGCLVKDYFPEPVTVSWNSGALTSGVHTFPAVLQSSGLYSLSSVVTVPSSSLGTQTYICNVNHKPSNTKVDKKVEPKSCDKTHTCPPCPAPDLLGDDSVFLFPPKPKDTLMISRTPEVTCVVIDVAEEDGEVKFNWYVDGVEVHNAKTKPREEQDASTYRVVSVLTVLHQDWLNGKEYKCKVSNKALPRPIEKTISKAKGQPREPQVYTLPPSRDELTKNQVSLTCLVKGFYPSDIAVEWESNGQPENNYKTTPMVLDSDGSFFLYSKLTVDKSRWQQGNVFSCSVMHEALHNHYTQKSLSLSP chain 2: not shown | 49 µM | 450 µM | 67 µM | 1.9 µM | 3.2 µM |  |  |  |  | 
2 | IL6R-P652/IL6R-L (antibody) chain 1: QVQLQESGPGLVKPSETLSLTCAVSGHSISHDHAWSWVRQPPGEGLEWIGFISYSGITNYNPSLQGRVTISRDNSKNTLYLQMNSLRAEDTAVYYCARSLARTTAMDYWGEGTLVTVSSASTKGPSVFPLAPSSKSTSGGTAALGCLVKDYFPEPVTVSWNSGALTSGVHTFPAVLQSSGLYSLSSVVTVPSSSLGTQTYICNVNHKPSNTKVDKKVEPKSCDKTHTCPPCPAPDLLGDDSVFLFPPKPKDTLMISRTPEVTCVVIDVYEEDGEVKFNWYVDGVEVHNAKTKPREEQDNSTYRVVSVLTVLHQDWLNGKEYKCKVSNKALPRPIEKTISKAKGQPREPQVYTLPPSRDELTKNQVSLTCLVKGFYPSDIAVEWESNGQPENNYKTTPMVLDSDGSFFLYSKLTVDKSRWQQGNVFSCSVMHEALHNHYTQKSLSLSP chain 2: not shown | 24 µM | 170 µM | 72 µM | 0.72 µM | 1.2 µM |  |  |  |  | 
3 | IL6R-P625/IL6R-L (antibody) chain 1: QVQLQESGPGLVKPSETLSLTCAVSGHSISHDHAWSWVRQPPGEGLEWIGFISYSGITNYNPSLQGRVTISRDNSKNTLYLQMNSLRAEDTAVYYCARSLARTTAMDYWGEGTLVTVSSASTKGPSVFPLAPSSKSTSGGTAALGCLVKDYFPEPVTVSWNSGALTSGVHTFPAVLQSSGLYSLSSVVTVPSSSLGTQTYICNVNHKPSNTKVDKKVEPKSCDKTHTCPPCPAPDKLGGDSVFLFPPKPKDTLMISRTPEVTCVVIDVAEEDGEVKFNWYVDGVEVHNAKTKPREEQYNSTYRVVSVLTVLHQDWLNGKEYKCKVSNKALPAPIEKTISKAKGQPREPQVYTLPPSRDELTKNQVSLTCLVKGFYPSDIAVEWESNGQPENNYKTTPPVLDSDGSFFLYSKLTVDKSRWQQGNVFSCSVMHEALHNHYTQKSLSLSP chain 2: not shown | 24 µM | 180 µM | 66 µM | 0.5 µM | 1.7 µM |  |  |  |  | 
4 | IL6R-P626/IL6R-L (antibody) chain 1: QVQLQESGPGLVKPSETLSLTCAVSGHSISHDHAWSWVRQPPGEGLEWIGFISYSGITNYNPSLQGRVTISRDNSKNTLYLQMNSLRAEDTAVYYCARSLARTTAMDYWGEGTLVTVSSASTKGPSVFPLAPSSKSTSGGTAALGCLVKDYFPEPVTVSWNSGALTSGVHTFPAVLQSSGLYSLSSVVTVPSSSLGTQTYICNVNHKPSNTKVDKKVEPKSCDKTHTCPPCPAPDRLGGDSVFLFPPKPKDTLMISRTPEVTCVVIDVAEEDGEVKFNWYVDGVEVHNAKTKPREEQYNSTYRVVSVLTVLHQDWLNGKEYKCKVSNKALPAPIEKTISKAKGQPREPQVYTLPPSRDELTKNQVSLTCLVKGFYPSDIAVEWESNGQPENNYKTTPPVLDSDGSFFLYSKLTVDKSRWQQGNVFSCSVMHEALHNHYTQKSLSLSP chain 2: not shown | 31 µM | 200 µM | 75 µM | 0.74 µM | 2.7 µM |  |  |  |  | 

The next lines start with the values.

Row | Kd (FcgRIIaR [1]) | Kd (FcgRIIaH [2]) | Kd (FcgRIIIaV [3]) | Kd (FcgRIa [4]) | Kd (FcgRIIb [5]) | Kd (FcgRIIIaV [6]) | Kd (FcgRIIaH [7]) | Kd (FcgRIIb [8]) | Kd (FcgRIa [9]) | Kd (FcgRIIaR [10]) | Binder
5 | 26 µM | 96 µM | 47 µM | 0.011 µM | 4.4 µM |  |  |  |  |  | IL6R-P631/IL6R-L (antibody) chain 1: QVQLQESGPGLVKPSETLSLTCAVSGHSISHDHAWSWVRQPPGEGLEWIGFISYSGITNYNPSLQGRVTISRDNSKNTLYLQMNSLRAEDTAVYYCARSLARTTAMDYWGEGTLVTVSSASTKGPSVFPLAPSSKSTSGGTAALGCLVKDYFPEPVTVSWNSGALTSGVHTFPAVLQSSGLYSLSSVVTVPSSSLGTQTYICNVNHKPSNTKVDKKVEPKSCDKTHTCPPCPAPDLLGGDSVFLFPPKPKDTLMISRTPEVTCVVINVAEEDGEVKFNWYVDGVEVHNAKTKPREEQYNSTYRVVSVLTVLHQDWLNGKEYKCKVSNKALPAPIEKTISKAKGQPREPQVYTLPPSRDELTKNQVSLTCLVKGFYPSDIAVEWESNGQPENNYKTTPPVLDSDGSFFLYSKLTVDKSRWQQGNVFSCSVMHEALHNHYTQKSLSLSP chain 2: not shown
6 |  |  |  |  |  | 44 µM | 170 µM | 4 µM | 0.57 µM | 54 µM | IL6R-P702/IL6R-L (antibody) chain 1: QVQLQESGPGLVKPSETLSLTCAVSGHSISHDHAWSWVRQPPGEGLEWIGFISYSGITNYNPSLQGRVTISRDNSKNTLYLQMNSLRAEDTAVYYCARSLARTTAMDYWGEGTLVTVSSASTKGPSVFPLAPSSKSTSGGTAALGCLVKDYFPEPVTVSWNSGALTSGVHTFPAVLQSSGLYSLSSVVTVPSSSLGTQTYICNVNHKPSNTKVDKKVEPKSCDKTHTCPPCPAPDLLGGDSVMLFPPKPKDTLMISRTPEVTCVVIDVREEDGEVKFNWYVDGVEVHNAKTKPREEQYNSTYRVVSVLTVLHQDWLNGKEYKCKVSNKALPAPIEKTISKAKGQPREPQVYTLPPSRDELTKNQVSLTCLVKGFYPSDIAVEWESNGQPENNYKTTPPVLDSDGSFFLYSKLTVDKSRWQQGNVFSCSVMHEALHNHYTQKSLSLSP chain 2: not shown
7 |  |  |  |  |  | 47 µM | 200 µM | 2.8 µM | 0.41 µM | 61 µM | IL6R-P694/IL6R-L (antibody) chain 1: QVQLQESGPGLVKPSETLSLTCAVSGHSISHDHAWSWVRQPPGEGLEWIGFISYSGITNYNPSLQGRVTISRDNSKNTLYLQMNSLRAEDTAVYYCARSLARTTAMDYWGEGTLVTVSSASTKGPSVFPLAPSSKSTSGGTAALGCLVKDYFPEPVTVSWNSGALTSGVHTFPAVLQSSGLYSLSSVVTVPSSSLGTQTYICNVNHKPSNTKVDKKVEPKSCDKTHTCPPCPAPDLLGGDSVFLFPPKPKDTLMISRTPEVTCVVIDVREEDGEVKFNWYVDGVEVHNAKTKPREEQENSTYRVVSVLTVLHQDWLNGKEYKCKVSNKALPAPIEKTISKAKGQPREPQVYTLPPSRDELTKNQVSLTCLVKGFYPSDIAVEWESNGQPENNYKTTPPVLDSDGSFFLYSKLTVDKSRWQQGNVFSCSVMHEALHNHYTQKSLSLSP chain 2: not shown
8 | 54 µM | 170 µM | 45 µM | 0.46 µM | 2.9 µM |  |  |  |  |  | IL6R-P636/IL6R-L (antibody) chain 1: QVQLQESGPGLVKPSETLSLTCAVSGHSISHDHAWSWVRQPPGEGLEWIGFISYSGITNYNPSLQGRVTISRDNSKNTLYLQMNSLRAEDTAVYYCARSLARTTAMDYWGEGTLVTVSSASTKGPSVFPLAPSSKSTSGGTAALGCLVKDYFPEPVTVSWNSGALTSGVHTFPAVLQSSGLYSLSSVVTVPSSSLGTQTYICNVNHKPSNTKVDKKVEPKSCDKTHTCPPCPAPDLLGGDSVFLFPPKPKDTLMISRTPEVTCVVIDVREEDGEVKFNWYVDGVEVHNAKTKPREEQYNSTYRVVSVLTVLHQDWLNGKEYKCKVSNKALPAPIEKTISKAKGQPREPQVYTLPPSRDELTKNQVSLTCLVKGFYPSDIAVEWESNGQPENNYKTTPPVLDSDGSFFLYSKLTVDKSRWQQGNVFSCSVMHEALHNHYTQKSLSLSP chain 2: not shown
9 | 27 µM | 100 µM | 47 µM | 0.0033 µM | 0.65 µM |  |  |  |  |  | IL6R-P629/IL6R-L (antibody) chain 1: QVQLQESGPGLVKPSETLSLTCAVSGHSISHDHAWSWVRQPPGEGLEWIGFISYSGITNYNPSLQGRVTISRDNSKNTLYLQMNSLRAEDTAVYYCARSLARTTAMDYWGEGTLVTVSSASTKGPSVFPLAPSSKSTSGGTAALGCLVKDYFPEPVTVSWNSGALTSGVHTFPAVLQSSGLYSLSSVVTVPSSSLGTQTYICNVNHKPSNTKVDKKVEPKSCDKTHTCPPCPAPDLLGKDSVFLFPPKPKDTLMISRTPEVTCVVIDVAEEDGEVKFNWYVDGVEVHNAKTKPREEQYNSTYRVVSVLTVLHQDWLNGKEYKCKVSNKALPAPIEKTISKAKGQPREPQVYTLPPSRDELTKNQVSLTCLVKGFYPSDIAVEWESNGQPENNYKTTPPVLDSDGSFFLYSKLTVDKSRWQQGNVFSCSVMHEALHNHYTQKSLSLSP chain 2: not shown
